For two molecules, binding result and Kd results are on record in WO2019030706A1 (dated 2019).

In experiment [1] the target is T1, prothrombin (human, UniProt P00734 44-622). The experiment in a line: pull-down with IgA binding lectin-agarose, supernatant on SDS-PAGE.
The target of another experiment is mature human thrombin (human, UniProt P00734 314-363; P00734 364-622). The experiment in a line: estimate from the rate of S2238 hydrolysis by thrombin.
For experiment [2], the target named is T1, prothrombin. The experiment in a line: ForteBio Octet, immobilized IgG. A general note: Biolayer interferometry detects binding as a change in optical thickness at a sensor tip.

B1: wild-type anti-exosite 1 IgA antibody (antibody, V domains shown)
VH: QVQLIQSGSAVKKPGASVRVSCKVSGYTLTEAAIHWVRQAPGKGLEWMGGLDPQDGETVYAQQFKGRVTMTEDRSTDTAYMEVNNLRSEDTATYYCTTGDFSEFEPFSMDYFHFWGQGTVVTVAS
VL: EIVLTQSPATLSLSPGERATLSCRASQNVSSFLAWYQHKPGQAPRLLIYDASSRATDIPIRFSGSGSGTDFTLTISGLEPEDFAVYYCQQRRSWPPLTFGGGTKVEIKR
notes: also called anti-thrombin IgA; anti-IIa IgA
On to B1, for which, in the experiment with prothrombin [1], the binding result was “no binding”. Besides, in the experiment with mature human thrombin, the Kd was roughly 12 nM.

B2: synthetic anti-exosite 1 IgG antibody (antibody, V domains shown)
VH: B1 VH
VL: B1 VL
notes: also called synthetic IgG; anti-exosite IgG antibody
Regarding B2, the binding result with prothrombin [2] is recorded as “no binding (tested: 500nM)”.

Usually Kd stands for a measure of binding affinity in units of concentration.
